The supplement of paper PMC6757056
± gives the standard deviation of the averaged measurements.

B1: library; a variant is named by its letters at N, in order (parent)
chain: GCUGUCACCGGUGCUUGGUACGUUAUAUUCAGCCGGUCUGAUGAGUCUNNNNNNAGACGAAACAGC

Key:
[1] = variants of: B1; assay: normalized RNA/DNA level without ligand (relative to sTRSVctl = 100) (log10 (% of sTRSVctl)); HEK293T overexpressing SLC46A1; higher = less ribozyme self-cleavage, higher mRNA level; conditions: without (6R,S)-folinic acid; ligand present: no
Summary of the method: (§1)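 Library plasmids encoding reporter-linked ribozyme switches (mCherry, or eGFP for some folinic acid experiments) were transfected into HEK293T at 4 µg per 6-well well. Ligand, when used, was added 1 h before transfection. Total RNA was extracted with EDTA 72 h later, then reverse-transcribed, amplified, barcoded and sequenced. RNA level was RNA reads over DNA reads, divided by a spiked-in non-cleaving control (or the top 25 sequences), ×100, log10; only sequences with ≥100 DNA reads were kept.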

[2] = variants of: B1; assay: normalized RNA/DNA level with ligand (relative to sTRSVctl = 100) (log10 (% of sTRSVctl)); HEK293T overexpressing SLC46A1; ligand concentration (+) RNA-Seq: 6 mM; higher = less ribozyme self-cleavage, higher mRNA level; conditions: with (6R,S)-folinic acid; ligand present: yes
Summary of the method: as §1

| Variant | normalized RNA/DNA level without ligand (log10) [1] | normalized RNA/DNA level with ligand (log10) [2] |
| --- | --- | --- |
| GCCCCU | 2.0548 ± 0.00021 | 2.024 ± 0.011 |
| GCCCCC | 2.03 ± 0.032 | 2.04 ± 0.048 |
| GCCCCG | 2.041 ± 0.012 | 1.99 ± 0.034 |
| GCCCCA | 2.031 ± 0.0049 | 2.01 ± 0.042 |
| GCCAGU | 2.056 ± 0.0089 | 2.049 ± 0.015 |
| GCCGAU | 2.015 ± 0.007 | 2.05 ± 0.03 |
| GCCGAC | 1.982 ± 0.0078 | 2.04 ± 0.029 |
| CCCGUC | 2.05 ± 0.056 | 2.03 ± 0.065 |
| CCCGUU | 2.057 ± 0.011 | 2.04 ± 0.023 |
| CCCGUG | 2.018 ± 0.016 | 2.012 ± 0.014 |
| CCCGUA | 2.062 ± 0.016 | 2.07 ± 0.055 |
| ACCGCG | 1.994 ± 0.015 | 2.05 ± 0.017 |
| ACCGCA | 2.009 ± 0.018 | 2.01 ± 0.024 |
| ACCGCC | 2.045 ± 0.02 | 2.05 ± 0.041 |
| ACCGCU | 2.07 ± 0.026 | 2.08 ± 0.028 |
| GCCAUA | 2.016 ± 0.0031 | 2.02 ± 0.052 |
| GCCAUU | 2.041 ± 0.0051 | 2.008 ± 0.015 |
| GCCAUC | 2.02 ± 0.031 | 2 ± 0.032 |
| CCCCGU | 2.05 ± 0.028 | 2.047 ± 0.01 |
| CCCCGC | 2.09 ± 0.0037 | 2.05 ± 0.034 |
| CCCCGG | 2.083 ± 0.0038 | 2.06 ± 0.022 |
| GCAUUG | 1.952 ± 0.009 | 2.01 ± 0.011 |
| GCAUUU | 2.03 ± 0.0026 | 2.04 ± 0.04 |
| GCCGUG | 1.994 ± 0.012 | 2.033 ± 0.018 |

| Variant | normalized RNA/DNA level without ligand (log10) [1] | normalized RNA/DNA level with ligand (log10) [2] |
| --- | --- | --- |
| GCCGUC | 2.08 ± 0.031 | 2.081 ± 0.0053 |
| GCCGUU | 2.067 ± 0.017 | 2.04 ± 0.006 |
| GCCGUA | 2.002 ± 0.0022 | 2.02 ± 0.05 |
| UCCUGA | 2.025 ± 0.0055 | 2.045 ± 0.018 |
| UCCUGC | 2.057 ± 0.01 | 2.077 ± 0.014 |
| UCCUGU | 1.999 ± 0.018 | 2.05 ± 0.043 |
| UCCUGG | 1.91 ± 0.023 | 2.04 ± 0.023 |
| UCCCAU | 2.003 ± 0.0031 | 1.9973 ± 0.0006 |
| UCCCAA | 1.981 ± 0.011 | 1.97 ± 0.024 |
| UCCCAC | 2.026 ± 0.012 | 2.02 ± 0.043 |
| UCCCAG | 1.962 ± 0.014 | 2.04 ± 0.03 |
| ACAUUG | 1.94 ± 0.032 | 2.024 ± 0.011 |
| ACAUUU | 2 ± 0.024 | 2.019 ± 0.018 |
| ACCCGG | 2.01 ± 0.022 | 2.04 ± 0.041 |
| ACCCGU | 2.0423 ± 0.0012 | 2.02 ± 0.0044 |
| ACCCGC | 2.038 ± 0.02 | 2.03 ± 0.041 |
| GCCACU | 2.022 ± 0.011 | 2.01 ± 0.029 |
| GCCACC | 2.0387 ± 0.00018 | 2.01 ± 0.025 |
| GCCACG | 1.99 ± 0.04 | 2.03 ± 0.062 |
| GCCACA | 2.036 ± 0.0076 | 2.026 ± 0.018 |
| ACCGAC | 2.0415 ± 0.00053 | 2.03 ± 0.058 |
| ACCGAU | 1.973 ± 0.0074 | 1.99 ± 0.044 |
| CCCAGG | 2.042 ± 0.006 | 2.01 ± 0.025 |
| CCCAGU | 2.05 ± 0.038 | 2.034 ± 0.02 |

| Variant | normalized RNA/DNA level without ligand (log10) [1] | normalized RNA/DNA level with ligand (log10) [2] |
| --- | --- | --- |
| CCCAGA | 2.0467 ± 0.00053 | 2.029 ± 0.012 |
| CCCAGC | 2.06 ± 0.035 | 2.06 ± 0.068 |
| UCCAUC | 2.036 ± 0.018 | 2.01 ± 0.051 |
| UCCAUA | 1.972 ± 0.0018 | 1.98 ± 0.042 |
| UCCAUU | 2.033 ± 0.011 | 2.006 ± 0.006 |
| UCCAUG | 1.857 ± 0.005 | 1.97 ± 0.053 |
| UCCCGU | 2.041 ± 0.013 | 2.04 ± 0.044 |
| UCCCGC | 2.013 ± 0.015 | 1.99 ± 0.053 |
| UCCCGG | 2.05 ± 0.018 | 2.05 ± 0.059 |
| UCCCGA | 2.033 ± 0.008 | 2.07 ± 0.033 |
| CCCAAC | 2.042 ± 0.017 | 2.019 ± 0.017 |
| CCCAAA | 2.02 ± 0.025 | 2.026 ± 0.0099 |
| CCCAAU | 2.023 ± 0.015 | 2.03 ± 0.028 |
| CCCAAG | 1.935 ± 0.014 | 1.99 ± 0.031 |
| GCCUCC | 2.068 ± 0.0082 | 2.05 ± 0.033 |
| GCCUCA | 2.041 ± 0.02 | 2.05 ± 0.044 |
| GCCUCU | 2.0468 ± 0.0011 | 2.07 ± 0.027 |
| GCCUCG | 2.034 ± 0.016 | 2.04 ± 0.046 |
| ACCUCA | 2.047 ± 0.0058 | 2.07 ± 0.049 |
| ACCUCU | 2.019 ± 0.0056 | 2.014 ± 0.015 |
| ACCUCG | 2.028 ± 0.0069 | 2.074 ± 0.0045 |
| ACCUCC | 2.08 ± 0.0086 | 2.01 ± 0.028 |
| UCCCCU | 2.06 ± 0.025 | 2.04 ± 0.049 |
| UCCCCA | 2.052 ± 0.0085 | 2.04 ± 0.033 |

| Variant | normalized RNA/DNA level without ligand (log10) [1] | normalized RNA/DNA level with ligand (log10) [2] |
| --- | --- | --- |
| UCCCCC | 2.06 ± 0.033 | 2.063 ± 0.012 |
| UCCCCG | 1.997 ± 0.008 | 2.041 ± 0.019 |
| GCCCAC | 2.02 ± 0.011 | 2.01 ± 0.034 |
| GCCCAG | 2 ± 0.028 | 2 ± 0.059 |
| GCCCAA | 2.03 ± 0.014 | 2.02 ± 0.042 |
| GCCCAU | 2.014 ± 0.0026 | 2.02 ± 0.061 |
| ACCUGG | 1.9783 ± 0.00064 | 2.04 ± 0.034 |
| ACCUGC | 2.07 ± 0.016 | 2.04 ± 0.044 |
| ACCUGA | 1.999 ± 0.003 | 2.03 ± 0.029 |
| ACCUGU | 2.01 ± 0.025 | 2 ± 0.024 |
| UCCUCG | 1.9194 ± 0.00071 | 2 ± 0.029 |
| UCCUCU | 2.054 ± 0.0029 | 2.04 ± 0.024 |
| UCCUCC | 2.089 ± 0.016 | 2.02 ± 0.046 |
| UCCUCA | 2.046 ± 0.013 | 2.07 ± 0.034 |
| CCCCAG | 2.004 ± 0.019 | 2.038 ± 0.012 |
| CCCCAA | 2.0237 ± 0.0015 | 1.999 ± 0.0078 |
| CCCCAC | 2.04 ± 0.022 | 2.05 ± 0.037 |
| CCCCAU | 2.031 ± 0.01 | 2.03 ± 0.045 |
| ACCAUC | 2.044 ± 0.011 | 2.02 ± 0.04 |
| ACCAUA | 1.988 ± 0.0064 | 2.013 ± 0.019 |
| ACCAUG | 1.982 ± 0.012 | 2.016 ± 0.0077 |
| ACCAUU | 2.02 ± 0.03 | 2.044 ± 0.0061 |
| GCCUUU | 2.04 ± 0.032 | 2.05 ± 0.044 |
| GCCUUG | 1.994 ± 0.0032 | 2.03 ± 0.033 |

| Variant | normalized RNA/DNA level without ligand (log10) [1] | normalized RNA/DNA level with ligand (log10) [2] |
| --- | --- | --- |
| GCCUUC | 2.05 ± 0.042 | 2.062 ± 0.012 |
| ACCAGA | 2.019 ± 0.013 | 2.05 ± 0.033 |
| ACCAGU | 2.005 ± 0.0042 | 2.02 ± 0.013 |
| ACCAGG | 1.9569 ± 0.0006 | 2 ± 0.024 |
| ACCAGC | 2.071 ± 0.0016 | 2.06 ± 0.038 |
| GCCGCG | 2.0553 ± 0.00018 | 2.092 ± 0.0094 |
| GCCGCC | 2.024 ± 0.0036 | 2.0189 ± 0.00031 |
| GCCGCA | 2.04 ± 0.027 | 2.044 ± 0.019 |
| GCCGCU | 2.048 ± 0.0044 | 2.04 ± 0.044 |
| UCCCUC | 2.07 ± 0.041 | 2.053 ± 0.0051 |
| UCCCUA | 2.007 ± 0.0055 | 2 ± 0.024 |
| UCCCUG | 1.919 ± 0.013 | 2.03 ± 0.039 |
| UCCCUU | 2.03 ± 0.026 | 2.006 ± 0.0086 |
| CCCUUU | 2.06 ± 0.024 | 2.06 ± 0.044 |
| CCCUUA | 2.065 ± 0.0096 | 2.08 ± 0.064 |
| CCCUUG | 2.069 ± 0.0099 | 2.091 ± 0.017 |
| CCCCUC | 2.05 ± 0.023 | 1.99 ± 0.038 |
| CCCCUU | 2.06 ± 0.023 | 2.05 ± 0.034 |
| UCCAGC | 2.035 ± 0.016 | 2.03 ± 0.022 |
| UCCAGU | 1.94 ± 0.029 | 1.99 ± 0.029 |
